The target of this data set is PCBP1 KH1/2 (mouse, UniProt P60335 13-170). The data set can be described thus: filter binding.
Chain of PCBP1 KH1/2 (P60335 13-170): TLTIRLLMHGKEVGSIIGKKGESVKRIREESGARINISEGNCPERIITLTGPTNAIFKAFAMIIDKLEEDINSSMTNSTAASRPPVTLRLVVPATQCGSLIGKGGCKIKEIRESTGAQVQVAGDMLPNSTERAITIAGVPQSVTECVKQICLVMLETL

B1: R7a1 (structured_RNA)
RNA: GGAGUGACCUUCUCAACUUUAUAUUCCCUUUACCCCUUCCCCCAAGGCACU
By Kd is commonly meant the constant that tells how readily two partners part at equilibrium. Higher therefore signals weaker binding. B1 yielded a Kd of 42.3 ± 12 nM.

The values are drawn from publication PMC2722981.
